Paper PMC5349611

Experiments:
[1] = biological target: T1, IolR-His6 (Salmonella enterica serovar Typhimurium 14028) (UniProt Q8ZK65); experiment: SPR (OneToTwo); settings: EMSA: 100 ng DNA in 1x Tris/borate/EDTA, 20 ul, 45 min, 12% native PAA gel run at 4 C; SPR: streptavidin chip, 30 ul/min, 25 C, 0-330 nM IolR, buffer not in …
T1 sequence: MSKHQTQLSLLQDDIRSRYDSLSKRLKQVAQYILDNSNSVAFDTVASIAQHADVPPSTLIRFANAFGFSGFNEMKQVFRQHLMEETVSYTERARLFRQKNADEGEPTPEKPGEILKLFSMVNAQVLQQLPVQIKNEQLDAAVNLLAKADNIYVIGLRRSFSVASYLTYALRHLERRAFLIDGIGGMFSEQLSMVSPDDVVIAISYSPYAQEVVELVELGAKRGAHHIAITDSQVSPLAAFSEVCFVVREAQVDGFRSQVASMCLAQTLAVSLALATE

[2] = test system: IolR-His6 (Salmonella enterica serovar Typhimurium 14028); experiment: SPR (OneToTwo); settings: EMSA: 100 ng DNA in 1x Tris/borate/EDTA, 20 ul, 45 min, 12% native PAA gel run at 4 C, SPR: streptavidin chip, 30 ul/min, 25 C, 0-330 nM IolR, buffer not in …
[3] = test system: IolR-His6 (Salmonella enterica serovar Typhimurium 14028); experiment: SPR (Interaction Map); settings: EMSA: 100 ng DNA in 1x Tris/borate/EDTA, 20 ul, 45 min, 12% native PAA gel run at 4 C, SPR: streptavidin chip, 30 ul/min, 25 C, 0-330 nM IolR, buffer not in …

Question: How did the Kd [1] turn out when “GGTGTGTCATCAATGGTTGTCTGTTGTGACGAGGAAAGATTTGGAAAAAATTATGATCTATATAGCATTTTTGTTTCATTTGGTGTGGTATAAAAATTCAAATTTCAGGGGGGTTTCGGCACCACA (double strand) [PreiD SPR fragment]” was run?
Answer: The Kd was 321 nM.

Question: PiolR SPR fragment was tested. Which Kd ([2]; KD1, ka1 1.3e5 M-1s-1, kd1 5.5e-2 s-1) did it give?
Answer: The Kd was 425 nM.

Question: And the Kd ([2]; KD2, ka2 2.4e5 M-1s-1, kd2 1.4e-3 s-1)?
Answer: The Kd was 6 nM.

Question: Which Kd ([3]; high-affinity component, peak weight 40.5%, ka 6.95e5 M-1s-1, kd 5.78e-4 s-1) does the source give for PiolT1 SPR fragment here?
Answer: The Kd was 0.81 nM.

Question: And the Kd ([3]; low-affinity component, peak weight 57.6%, ka 1.05e5 M-1s-1, kd 3.2e-2 s-1)?
Answer: Its Kd is 312 nM.

Question: For PreiD SPR fragment, which Kd ([2]; KD1, ka1 1.5e5 M-1s-1, kd1 4.9e-2 s-1) is on record?
Answer: Its Kd is 321 nM.

Question: What about the Kd ([2]; KD2, ka2 2.1e5 M-1s-1, kd2 1.4e-3 s-1) of the same substance?
Answer: The Kd was 6.6 nM.

Question: Which Kd [1] does the source give for “TTGCTCAGAACCCAGCCCGCCAGCAAATTCTGTACTGAAGGTAACCACAGCGCAATTTGAATGTTGTTAACTGTATGTTCAGTTCATTTGTGCTAATATGGTTATTTACGAAATTTTCGTTCTATTAGAGTATCATGCATGTCTAAACATCAAACTCAACTTTCCTTACTGCAGGATGATATCCGCAG (double strand) [PiolR SPR fragment]” here?
Answer: The Kd was 425 nM.
